# Source: article PMC4263767, “IL-28B is a Key Regulator of B- and T-Cell Vaccine Responses against Influenza” (PLoS Pathogens, 2014)
# “Also recorded” adds a separate entry of the source. Where two headings read alike, the source gives them in different places.
# Assays:
# [1] = system: CD3+CD4+ T-cells in PBMCs from transplant recipients; assay type: cell-based, human
# [2] = system: T-cells, monocytes and macrophages; details: ref [42], [43]; cited from earlier work
# From the text: The IFN-λ family (Interleukin-28A, -28B, -29, and IFN-λ4) is a recently described class of IFNs with antiviral properties similar to IFN-α and -β [14]–[17]. IFN-λ is known to induce phosphorylation of STAT-1 and -2 via binding to its receptor, which is a heterodimer consisting of the IL-28 receptor alpha subunit (IL28RA) and IL-10 receptor beta subunit (IL10RB). […] Furthermore, IFN-λs induced the development of T-regu ... || IL-28B (IFN-λ3) belongs to the family of IFN-lambdas and shares antiviral properties similar to IFN-α via induction of interferon stimulated genes (ISGs) such as MX1 or OAS1 [41]. […] IL-12 is a key cytokine for the induction of Th1 cells and cytotoxic lymphocytes, [43]. SNPs in the IL-28B gene (minor-allele genotypes) have been associated with reduced IL-28B expression, [29]–[33], which could impact adaptive immune functions during vaccination. One limitation of our study is that we d ...
# [3] = system: PBMCs from healthy volunteers; assay: Time course of cytokine release, independently recruited healthy volunteers (S3 Figure); assay type: cell-based, human; details: IL-28B 100 ng/ml
# From the text: Two luminex-based cytokine profiling kits were used (Eve Technologies, Calgary, Canada). (i) 17-plex: Fractalkine, IFN-α, IFN-γ, GRO, MCP-3, IL-13, sCD40-L, IL-9, IL-1β, IL-2, IL-4, IL-5, IL-6, IP-10, MCP-1, MIP-1α, and TNF-α. (ii) 41-plex: EGF, Eotaxin, FGF-2, FLT3, Fractalkine, G-CSF, GM-CSF, GRO. IFN-α2, IFN-γ, IL-1α, IL-1β, IL-1ra, IL-2, IL-3, IL-4, IL-5, IL-6, IL-7, IL-8, IL-9, IL-10, IL-12p40, IL-12p70, IL-13, IL-15, IL-17, IP-10, MCP-1, MCP-3, MDC, MIP-1α, MIP-1β, PDGF AA, PDGF AB/BB, RANTES, sCD40L, sIL2ra, TGF-α, TNF-α, TNF-β, and VEGF. Our independent experiment for examining a time course of cytokine induction was a custom-plex based on the 17-plex and still run and analyzed by Eve Technologies.
# Supplementary file ppat.1004556.s003.tiff: S3 Figure A cytokine profile with pH1N1 stimulation +/− IL-28B pre-treatment (100 ng/ml) was performed. The time-points were collected within the same experiments. For the first 3 HVs studied, d+5 sample was not collected. Overall, the time-points d+1, d+3, d+7 were available in total 10 HVs and for d+5 in 7 HVs. Wilcoxon matched pairs rank test was used to test for significant difference. (TIFF) Click here for additional data file.
# [4] = system: PBMCs from transplant recipients; assay: Cytokine release by H1N1-stimulated transplant recipient PBMCs, overnight (luminex); assay type: cell-based, human
# [5] = system: PBMCs from healthy volunteers; assay type: cell-based, human
# [6] = system: PBMCs from transplant recipients; assay type: cell-based, human; details: IL-28B 100 ng/mL, 2 h before 5-day H1N1; 38 transplant recipients; p = 0.004
# [7] = system: PBMCs from healthy volunteers; assay type: cell-based, human; details: 0 ng/mL: 19.2%, p = 0.92
# Protocol: Prior to surface staining, LIVE/DEAD staining was performed (near-IR; Invitrogen). Markers for identifying T-cell subsets were CD3, and CD4. Intracellular cytokine staining was performed according to previously published protocols after overnight stimulation. IL-4 was used as a key representative for Th2 cytokine production. Background (unstimulated samples) were subtracted from stimulated results. All reagents including perm and fixation buffers and antibodies were from eBioscience. Isotype controls have previously been used to establish the assays.
# [8] = system: B-cells in PBMCs from healthy volunteers; assay: H1N1-stimulated B-cell proliferation (Cell Trace Violet); assay type: cell-based, human
# [9] = IL-28B 100 ng/mL, overnight H1N1, p=0.04
# [10] = IL-28B 100 ng/mL, overnight H1N1, p=0.39
# [11] = IL-28B 100 ng/mL, overnight H1N1, p=1.00
# [12] = IL-28B 100 ng/mL, overnight H1N1, transplant PBMCs, median (IQR)
molecule,measurement,setting,value
"IL-28B: recombinant IL-28B, a member of the interferon (IFN)-λ family (protein, left off: His tag, end not stated, kept, recombinant IL-28B, a member of the interferon (IFN)-λ family) VPVARLRGALPDARGCHIAQFKSLSPQELQAFKRAKDALEESLLLKDCKCRSRLFPRTWDLRQLQVRERPVALEAELALTLKVLEATADTDPALGDVLDQPLHTLHHILSQLRACIQPQPTAGPRTRGRLHHWLHRLQEAPKKESPGCLEASVTFNLFRLLTRDLNCVASGDLCV",fold reduction in IL-4 production by CD3+CD4+ T-cells,"[1]; IL-28B 100 ng/mL, 2 h before overnight H1N1, transplant recipients n = 47",> 2 -fold
same,sensitivity of IL-4 production to IL-28B by genotype,"[1]; minor allele (TG or GG) PBMCs, 45 transplant recipients",particularly pronounced in patients with a minor allele genotype; also recorded: strong sensitivity to IL-28B
same,IL-12 production in monocytes and macrophages,[2],induce IL-12 production in monocytes and macrophages
same,IFN-γ (in words),[3],trend for upregulation
same,"Th1 and Th1-associated cytokines, early time-points (in words)",[3],"significantly up-regulated (IFN-α, IL12p40, TNF- α, and IL-6)"
same,"Th2 and Th2-associated cytokines, later time-points (in words)",[3],down-regulated
same,"H1N1-stimulated Th1-cytokine expression (IFN-γ, IL6)","[4]; IL-28B 100 ng/mL, 2 h before overnight H1N1, n = 36",significant increase
same,"IFN-α, ratio IL-28B/no IL-28B","[4]; IL-28B 100 ng/mL, overnight H1N1, p=0.001",2.9
same,"IFN-γ, ratio IL-28B/no IL-28B",[4]; [9],2.1
same,"MIP-1α, ratio IL-28B/no IL-28B",[4]; [9],1.8
same,"sCD40-L, ratio IL-28B/no IL-28B",[4]; [9],1.0
same,"IL-6, ratio IL-28B/no IL-28B","[4]; IL-28B 100 ng/mL, overnight H1N1, p=0.05",2.4
same,"IP-10, ratio IL-28B/no IL-28B","[4]; IL-28B 100 ng/mL, overnight H1N1, p=0.14",1.0
same,"MCP-3, ratio IL-28B/no IL-28B","[4]; IL-28B 100 ng/mL, overnight H1N1, p=0.33",1.2
same,"Fractalkine, ratio IL-28B/no IL-28B",[4]; [10],5.0
same,"TNF-α, ratio IL-28B/no IL-28B",[4]; [10],1.9
same,"IL-1β, ratio IL-28B/no IL-28B","[4]; IL-28B 100 ng/mL, overnight H1N1, p=0.44",1.0
same,"MCP-1, ratio IL-28B/no IL-28B","[4]; IL-28B 100 ng/mL, overnight H1N1, p=0.61",1.0
same,"IL-2, ratio IL-28B/no IL-28B","[4]; IL-28B 100 ng/mL, overnight H1N1, p=0.86",1.1
same,"IL-4, ratio IL-28B/no IL-28B","[4]; IL-28B 100 ng/mL, overnight H1N1, p=0.92",1.0
same,"GRO, ratio IL-28B/no IL-28B",[4]; [11],1.0
same,"IL-5, ratio IL-28B/no IL-28B",[4]; [11],1.0
same,"IL-9, ratio IL-28B/no IL-28B",[4]; [11],1.0
same,"IL-13, ratio IL-28B/no IL-28B",[4]; [11],1.0
same,Fractalkine,[4]; [12],16.1 (3.2-60.2) pg/mL
same,GRO,[4]; [12],3.2 (3.2-3.2) pg/mL
same,IFN-α,[4]; [12],1290.8 (502.4-1969.9) pg/mL
same,IFN-γ,[4]; [12],48.0 (13.9-133.3) pg/mL
same,IL-1β,[4]; [12],0.6 (0.6-4.0) pg/mL
same,IL-2,[4]; [12],61.5 (6.0-168.9) pg/mL
same,IL-4,[4]; [12],0.6 (0.6-1.5) pg/mL
same,IL-5,[4]; [12],0.6 (0.6-0.6) pg/mL
same,IL-6,[4]; [12],104.0 (15.0-156.6) pg/mL
same,IL-9,[4]; [12],0.6 (0.6-0.6) pg/mL
same,IL-13,[4]; [12],0.6 (0.6-0.9) pg/mL
same,IP-10,[4]; [12],8336.4 (7362.5-9289.1) pg/mL
same,MCP-1,[4]; [12],0.5 (0.5-827.4) pg/mL
same,MCP-3,[4]; [12],760.9 (398.3-2500.5) pg/mL
same,MIP-1α,[4]; [12],321.4 (173.7-485.3) pg/mL
same,TNF-α,[4]; [12],23.2 (0.7-44.8) pg/mL
same,sCD40-L,[4]; [12],0.6 (0.6-77.7) pg/mL
same,"Th1-cytokines (in words, abstract)",[4]; in vitro,increased Th1-cytokines (e.g. IFN-γ)
same,reduction of IgG-production,"[5]; abstract, in vitro",> 70%
same,lower H1N1-stimulated IgG antibody production,"[5]; highest dose of IL-28B (100 ng/mL), 5-day H1N1, n = 8",70%
same,H1N1-induced IgG production with IL-28B (in words),[6],significantly decreased
same,median % dead cells,[7]; IL-28B 1 ng/mL,19.9%
same,median % dead cells,[7]; IL-28B 10 ng/mL,23.6%
same,median % dead cells,[7]; IL-28B 100 ng/mL,22.6%
same,reduction in proliferation capacity of memory B-cells,"[8]; 5-day H1N1, n = 6",70%
same,H1N1-stimulated B-cell proliferation (in words),"[8]; IL-28B 1, 10, 100 ng/mL, 5-day H1N1, n = 6",dose-dependent decrease
same,reduction of H1N1-stimulated B-cell proliferation,"[8]; abstract, in vitro",70%
